From IntAct's records for PubMed 31515488

B1: Ras-related protein Rab-39B (Homo sapiens), Q96DA2 (parent)
chain: MEAIWLYQFRLIVIGDSTVGKSCLIRRFTEGRFAQVSDPTVGVDFFSRLVEIEPGKRIKLQIWDTAGQERFRSITRAYYRNSVGGLLLFDITNRRSFQNVHEWLEETKVHVQPYQIVFVLVGHKCDLDTQRQVTRHEAEKLAAAYGMKYIETSARDAINVEKAFTDLTRDIYELVKRGEITIQEGWEGVKSGFVPNVVHSSEEVVKSERRCLC
partner: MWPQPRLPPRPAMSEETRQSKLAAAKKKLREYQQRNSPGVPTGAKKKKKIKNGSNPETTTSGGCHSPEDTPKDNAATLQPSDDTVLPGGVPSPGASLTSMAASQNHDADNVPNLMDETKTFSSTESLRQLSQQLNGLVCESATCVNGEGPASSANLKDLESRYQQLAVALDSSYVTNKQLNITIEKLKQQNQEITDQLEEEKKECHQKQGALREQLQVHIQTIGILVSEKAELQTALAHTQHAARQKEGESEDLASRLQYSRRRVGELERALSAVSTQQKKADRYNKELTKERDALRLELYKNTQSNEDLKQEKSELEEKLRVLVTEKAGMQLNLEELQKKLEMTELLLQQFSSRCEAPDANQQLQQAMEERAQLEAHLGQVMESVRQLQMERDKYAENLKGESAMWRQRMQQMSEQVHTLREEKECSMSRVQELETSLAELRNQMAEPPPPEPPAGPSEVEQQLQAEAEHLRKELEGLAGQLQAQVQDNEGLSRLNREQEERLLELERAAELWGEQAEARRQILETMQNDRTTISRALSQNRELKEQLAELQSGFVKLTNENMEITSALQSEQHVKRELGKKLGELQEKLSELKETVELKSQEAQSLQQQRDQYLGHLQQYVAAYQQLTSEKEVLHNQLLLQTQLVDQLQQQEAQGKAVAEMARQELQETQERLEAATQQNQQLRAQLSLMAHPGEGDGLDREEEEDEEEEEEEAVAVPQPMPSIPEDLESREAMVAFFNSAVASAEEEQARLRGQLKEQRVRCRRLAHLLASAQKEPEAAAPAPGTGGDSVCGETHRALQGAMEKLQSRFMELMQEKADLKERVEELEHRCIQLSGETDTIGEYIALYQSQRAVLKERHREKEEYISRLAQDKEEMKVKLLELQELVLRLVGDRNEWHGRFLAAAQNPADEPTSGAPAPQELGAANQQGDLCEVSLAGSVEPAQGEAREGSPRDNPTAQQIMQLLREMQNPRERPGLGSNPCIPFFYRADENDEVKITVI
B2: Dual specificity protein phosphatase 21 (Homo sapiens), Q9H596 (parent)
chain: MTASASSFSSSQGVQQPSIYSFSQITRSLFLSNGVAANDKLLLSSNRITAIVNASVEVVNVFFEGIQYIKVPVTDARDSRLYDFFDPIADLIHTIDMRQGRTLLHCMAGVSRSASLCLAYLMKYHSMSLLDAHTWTKSRRPIIRPNNGFWEQLINYEFKLFNNNTVRMINSPVGNIPDIYEKDLRMMISM
B3: Modulator of apoptosis 1 (Homo sapiens), Q96BY2 (parent)
chain: MTLRLLEDWCRGMDMNPRKALLIAGISQSCSVAEIEEALQAGLAPLGEYRLLGRMFRRDENRKVALVGLTAETSHALVPKEIPGKGGIWRVIFKPPDPDNTFLSRLNEFLAGEGMTVGELSRALGHENGSLDPEQGMIPEMWAPMLAQALEALQPALQCLKYKKLRVFSGRESPEPGEEEFGRWMFHTTQMIKAWQVPDVEKRRRLLESLRGPALDVIRVLKINNPLITVDECLQALEEVFGVTDNPRELQVKYLTTYQKDEEKLSAYVLRLEPLLQKLVQRGAIERDAVNQARLDQVIAGAVHKTIRRELNLPEDGPAPGFLQLLVLIKDYEAAEEEEALLQAILEGNFT
partner: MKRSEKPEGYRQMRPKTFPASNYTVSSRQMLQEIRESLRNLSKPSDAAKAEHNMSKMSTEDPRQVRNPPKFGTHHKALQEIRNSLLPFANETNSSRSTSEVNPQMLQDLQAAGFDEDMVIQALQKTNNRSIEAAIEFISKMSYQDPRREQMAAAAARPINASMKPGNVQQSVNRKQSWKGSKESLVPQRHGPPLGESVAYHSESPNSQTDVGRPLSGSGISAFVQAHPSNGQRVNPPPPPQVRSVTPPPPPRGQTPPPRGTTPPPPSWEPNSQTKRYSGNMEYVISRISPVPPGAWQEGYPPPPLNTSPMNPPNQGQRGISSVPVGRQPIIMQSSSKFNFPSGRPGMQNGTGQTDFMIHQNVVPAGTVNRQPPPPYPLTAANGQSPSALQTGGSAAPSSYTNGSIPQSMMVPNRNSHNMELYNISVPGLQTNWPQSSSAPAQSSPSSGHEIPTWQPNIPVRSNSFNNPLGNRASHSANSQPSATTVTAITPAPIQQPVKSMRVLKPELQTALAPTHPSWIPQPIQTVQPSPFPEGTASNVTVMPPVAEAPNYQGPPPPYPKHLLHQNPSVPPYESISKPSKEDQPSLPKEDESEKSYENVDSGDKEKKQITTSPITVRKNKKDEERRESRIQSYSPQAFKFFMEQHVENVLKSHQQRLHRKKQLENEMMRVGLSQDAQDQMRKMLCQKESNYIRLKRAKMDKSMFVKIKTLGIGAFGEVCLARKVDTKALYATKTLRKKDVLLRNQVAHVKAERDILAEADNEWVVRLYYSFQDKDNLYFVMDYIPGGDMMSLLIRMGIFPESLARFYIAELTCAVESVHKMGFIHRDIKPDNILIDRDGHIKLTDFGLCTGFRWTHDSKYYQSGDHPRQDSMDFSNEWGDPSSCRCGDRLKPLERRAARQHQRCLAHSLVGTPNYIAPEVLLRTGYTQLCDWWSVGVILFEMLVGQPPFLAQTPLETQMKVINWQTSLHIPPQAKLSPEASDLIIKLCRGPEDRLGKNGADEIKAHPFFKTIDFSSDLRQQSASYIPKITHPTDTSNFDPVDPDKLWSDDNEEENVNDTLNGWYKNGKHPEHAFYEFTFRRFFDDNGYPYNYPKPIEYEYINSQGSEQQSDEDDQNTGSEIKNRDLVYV
B4: Plasma alpha-L-fucosidase (Homo sapiens), Q9BTY2 (parent)
chain: MRPQELPRLAFPLLLLLLLLLPPPPCPAHSATRFDPTWESLDARQLPAWFDQAKFGIFIHWGVFSVPSFGSEWFWWYWQKEKIPKYVEFMKDNYPPSFKYEDFGPLFTAKFFNANQWADIFQASGAKYIVLTSKHHEGFTLWGSEYSWNWNAIDEGPKRDIVKELEVAIRNRTDLRFGLYYSLFEWFHPLFLEDESSSFHKRQFPVSKTLPELYELVNNYQPEVLWSDGDGGAPDQYWNSTGFLAWLYNESPVRGTVVTNDRWGAGSICKHGGFYTCSDRYNPGHLLPHKWENCMTIDKLSWGYRREAGISDYLTIEELVKQLVETVSCGGNLLMNIGPTLDGTISVVFEERLRQMGSWLKVNGEAIYETHTWRSQNDTVTPDVWYTSKPKEKLVYAIFLKWPTSGQLFLGHPKAILGATEVKLLGHGQPLNWISLEQNGIMVELPQLTIHQMPCKWGWALALTNVI
B5: Keratin, type II cytoskeletal 79 (Homo sapiens), Q5XKE5 (parent)
chain: MRSSVSRQTYSTKGGFSSNSASGGSGSQARTSFSSVTVSRSSGSGGGAHCGPGTGGFGSRSLYNLGGHKSISVSVAGGALLGRALGGFGFGSRAFMGQGAGRQTFGPACPPGGIQEVTVNQSLLTPLHVEIDPEIQRVRTQEREQIKTLNNKFASFIDKVRFLEQQNKVLETKWALLQEQGQNLGVTRNNLEPLFEAYLGSMRSTLDRLQSERGRLDSELRNVQDLVEDFKNKYEDEINKHTAAENEFVVLKKDVDAAYMGRMDLHGKVGTLTQEIDFLQQLYEMELSQVQTHVSNTNVVLSMDNNRNLDLDSIIAEVKAQYELIAQRSRAEAEAWYQTKYEELQVTAGKHGDNLRDTKNEIAELTRTIQRLQGEADAAKKQCQQLQTAIAEAEQRGELALKDAQKKLGDLDVALHQAKEDLTRLLRDYQELMNVKLALDVEIATYRKLLESEESRMSGECPSAVSISVTGNSTTVCGGGAASFGGGISLGGSGGATKGGFSTNVGYSTVKGGPVSAGTSILRKTTTVKTSSQRY
partner: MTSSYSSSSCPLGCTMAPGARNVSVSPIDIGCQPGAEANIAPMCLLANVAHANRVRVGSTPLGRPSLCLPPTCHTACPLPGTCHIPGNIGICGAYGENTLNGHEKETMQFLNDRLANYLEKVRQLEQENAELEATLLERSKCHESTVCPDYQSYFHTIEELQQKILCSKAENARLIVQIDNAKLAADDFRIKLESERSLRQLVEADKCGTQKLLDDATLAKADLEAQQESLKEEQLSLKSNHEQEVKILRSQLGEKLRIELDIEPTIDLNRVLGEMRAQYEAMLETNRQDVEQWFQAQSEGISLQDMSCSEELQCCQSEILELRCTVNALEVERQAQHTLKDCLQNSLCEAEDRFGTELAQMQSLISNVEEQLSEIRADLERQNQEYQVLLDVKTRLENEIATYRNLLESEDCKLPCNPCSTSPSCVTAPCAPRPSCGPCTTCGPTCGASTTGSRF

Variants of: B1
Details: with goga2_human GOLGA2, Q08379

R177S was tested. Which “effect of a mutation on the interaction” value did it give?
The value was “with no effect”.

Variants of: B2
Details: with gors2_human GORASP2, Q9H8Y8

For S18F, which “effect of a mutation on the interaction” value is on record?
Its value is “with no effect”.

Variants of: B3
Details: with lats1_human LATS1, O95835

Which “effect of a mutation on the interaction” value does the source give for R57K here?
Its value is “disrupting interaction strength”.

Variants of: B4
Details: with meox2_human MEOX2, P50222
meox2_human MEOX2, P50222, sequence (P50222 whole entry): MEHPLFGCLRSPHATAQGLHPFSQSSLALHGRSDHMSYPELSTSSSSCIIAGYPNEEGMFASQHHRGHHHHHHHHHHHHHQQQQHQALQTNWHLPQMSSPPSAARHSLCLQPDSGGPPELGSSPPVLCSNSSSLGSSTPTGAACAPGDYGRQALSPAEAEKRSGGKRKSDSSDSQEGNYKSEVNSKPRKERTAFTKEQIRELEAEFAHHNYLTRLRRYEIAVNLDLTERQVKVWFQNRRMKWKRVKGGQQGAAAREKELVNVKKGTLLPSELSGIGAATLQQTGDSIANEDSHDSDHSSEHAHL

How did the “effect of a mutation on the interaction” value turn out when A233E was run?
The value was “with no effect”.

Variants of: B5
Details: with krt38_human KRT38, O76015

With R161Q as the variant, how does the “effect of a mutation on the interaction” value read?
Its value is “with no effect”.

R30C was tested. Which “effect of a mutation on the interaction” value did it give?
The value was “with no effect”.

How did the “effect of a mutation on the interaction” value turn out when H266R was run?
The value was “with no effect”.

How did the “effect of a mutation on the interaction” value turn out when G86E was run?
Its value is “with no effect”.

Which “effect of a mutation on the interaction” value does the source give for R213W here?
The value was “disrupting interaction strength”.

With D217Y as the variant, how does the “effect of a mutation on the interaction” value read?
The value was “with no effect”.
